Source: patent publication US20240254231A1 (PETMEDIX, published 2024)

B1: PMX152 (antibody, V domains shown)
VH: EVQLVESGGDLVKPGGSLRLSCVASGFTFSRYYMNWVRQAPGKGPQWVAYINNAGSDRNYVDAVKGRFTISRDNAKNTLYLQMNSLRAEDTAVYYCASEIRGVVVVGHLDYWGQGTLVTVSS
VL: SYVLTQLPSKSVTLNQPAHITCGGDNIGSKSVHWYQQKLGQAPVLIIYYDSIRPTGIPERFSGATSGNTATLTISGALAEDEADYYCQVWDSSAKAWVFGEGTQLTVL
notes: also called PM152
B2: PMX126 (antibody, V domains shown)
VH: EVQLVESGGDLVKPAGSLRLSCLASGFTFSSYSMSWVRQAPEKGLQSVAGINSDGDRTYYTDAVKGRFTISRDNAKSTVYLQMNSLRAEDTAMYYCVRGFSSFNAFGYWGQGTLVTVSS
VL: DIVMTQTPLSLSVSPGETASISCKASQSLLHSDGNTYLSWFRQKPGQSPHRLIYAVSHRHPGVPDRFSGSGSGTDFTLRISRVEADDAGLYYCGQVIQDPWTFGAGTKVELK
notes: Alexa Fluor 647-labelled in some assays
B3: PMX127 (antibody, V domains shown)
VH: EVQLVESGGDLVKPGGSLRLSCVASGFSFSRYHMSWVRQAPGKGLQWVAYIVSGGISTSYADAVKGRFTISRDNAKNTLFLQMNSLRAEDTAVYYCATYGSYFFDTWGQGTLVTVSS
VL: DIVMTQTPLSLSVSPGETASIFCKASQSLLHSDGKSYLNWFRQKPGQSPQRLIYRVSNRDPGVPDRFSGSGSGTDFTLRISRVEADDTGLYYCGQVIQDPTFGAGTKVELK
notes: Alexa Fluor 647-labelled in some assays; also called PM127

Legend:
canine PD-1 ECD-6His = target: T1, canine PD-1 ECD-6His (canine); assay: SPR multi-cycle kinetics, mAb captured on protein A chip, monomeric PD-1 ECD-6His analyte
T1 construct: also called recombinant canine PD-1-ECD-6His protein; not shown: hexahistidine tag
T1 chain: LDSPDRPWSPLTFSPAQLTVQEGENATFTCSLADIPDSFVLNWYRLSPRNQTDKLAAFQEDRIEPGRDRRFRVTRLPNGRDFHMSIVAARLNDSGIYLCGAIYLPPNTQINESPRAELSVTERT

[1] = target: T2, recombinant human PD-1 ECD-6His protein (Bio-Techne, item BP164049-1 mg) (human, UniProt Q15116 25-170); assay: SPR, mAb captured on protein A chip, PD-1 protein injected
T2 construct: extracellular domain; Bought protein; also called human PD-1-ED-6His; recombinant human PD-1 protein; not shown: hexahistidine tag
T2 sequence (Q15116 25-170): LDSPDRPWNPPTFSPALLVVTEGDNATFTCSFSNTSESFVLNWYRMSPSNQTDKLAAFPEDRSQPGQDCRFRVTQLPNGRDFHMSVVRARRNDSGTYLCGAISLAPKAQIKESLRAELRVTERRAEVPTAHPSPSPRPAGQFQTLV

Binder | binding result (canine PD-1 ECD-6His) | binding result [1]
B1 | binds | 
B2 |  | no binding (tested: 900 nM)
B3 |  | no binding (tested: 900 nM)
